Source: the supplement of paper PMC10567573

B1: TRIM35 (parent)
chain: PTCPVCKDRASPADLRTNHTLNNL

Variants of: B1
Test: protein stability index of a GFP-peptide fusion (GPS, HEK-293T) (PSI 1-6); higher = more stable
Details: c terminus: a fixed tail appended
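Also: lentivirally expressed fusions sorted by FACS into six bins by GFP to DsRed ratio, PSI derived from sequencing read proportions per bin multiplied by bin number.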

First: PTCPVCKDRNSPADLRTNHTLNNL [A10N]
Second: PTCPVCKDRQSPADLRTNHTLNNL [A10Q]
The protein stability index of the first is lower: 2.78 for the first, 3.01 for the second.

Going from PTCPVCKDRHSPADLRTNHTLNNL [A10H] to PTCPVCKDRRSPADLRTNHTLNNL [A10R], the protein stability index falls from 3.23 to 3.03.

Going from PTCPVCKDRESPADLRTNHTLNNL [A10E] to PTCPVCKDRPSPADLRTNHTLNNL [A10P], the protein stability index falls from 3.33 to 3.17.

Compared with PTCPVCKDRFSPADLRTNHTLNNL [A10F], PTCPVCKDRLSPADLRTNHTLNNL [A10L] is lower in protein stability index: 2.96 for the first, 1.96 for the second.

Compared with PTCPVCKDRISPADLRTNHTLNNL [A10I], PTCPVCKDRGSPADLRTNHTLNNL [A10G] is lower in protein stability index: 3.05 for the first, 2.88 for the second.

Going from PTCPVCKDRSSPADLRTNHTLNNL [A10S] to PTCPVCKDRCSPADLRTNHTLNNL [A10C], the protein stability index falls from 2.86 to 2.03.

First: PTCPVCKDRKSPADLRTNHTLNNL [A10K]
Second: PTCPVCKDRDSPADLRTNHTLNNL [A10D]
The protein stability index of the first is lower: 3.05 for the first, 3.34 for the second.

Going from PTCPVCKDRMSPADLRTNHTLNNL [A10M] to PTCPVCKDLASPADLRTNHTLNNL [R9L], the protein stability index rises from 2.72 to 3.07.

Going from PTCPVCKDYASPADLRTNHTLNNL [R9Y] to PTCPVCKDIASPADLRTNHTLNNL [R9I], the protein stability index falls from 3.08 to 2.96.

PTCPVCKDMASPADLRTNHTLNNL [R9M] and PTCPVCKDCASPADLRTNHTLNNL [R9C] are the same in protein stability index: 2.97 for the first, 2.97 for the second.

Going from PTCPVCKDSASPADLRTNHTLNNL [R9S] to PTCPVCKDPASPADLRTNHTLNNL [R9P], the protein stability index rises from 3.5 to 3.71.

Going from PTCPVCKDGASPADLRTNHTLNNL [R9G] to PTCPVCKDDASPADLRTNHTLNNL [R9D], the protein stability index rises from 3.66 to 3.99.

Going from PTCPVCKDFASPADLRTNHTLNNL [R9F] to PTCPVCKDKASPADLRTNHTLNNL [R9K], the protein stability index rises from 3.11 to 3.16.

Compared with PTCPVCKDAASPADLRTNHTLNNL [R9A], PTCPVCKDQASPADLRTNHTLNNL [R9Q] is higher in protein stability index: 2.98 for the first, 3.55 for the second.

First: PTCPVCKDEASPADLRTNHTLNNL [R9E]
Second: PTCPVCKDNASPADLRTNHTLNNL [R9N]
The protein stability index of the first is higher: 3.62 for the first, 3.12 for the second.

First: PTCPVCKDTASPADLRTNHTLNNL [R9T]
Second: PTCPVCKDVASPADLRTNHTLNNL [R9V]
The protein stability index of the first is higher: 3.5 for the first, 2.9 for the second.

First: PTCPVCKDWASPADLRTNHTLNNL [R9W]
Second: PTCPVCKDHASPADLRTNHTLNNL [R9H]
The protein stability index of the first is lower: 3.11 for the first, 3.66 for the second.

First: PTCPVCKIRASPADLRTNHTLNNL [D8I]
Second: PTCPVCKRRASPADLRTNHTLNNL [D8R]
The protein stability index of the first is higher: 2.65 for the first, 2.02 for the second.

First: PTCPVCKSRASPADLRTNHTLNNL [D8S]
Second: PTCPVCKHRASPADLRTNHTLNNL [D8H]
The protein stability index of the first is lower: 2.45 for the first, 2.61 for the second.

First: PTCPVCKLRASPADLRTNHTLNNL [D8L]
Second: PTCPVCKFRASPADLRTNHTLNNL [D8F]
The protein stability index of the first is higher: 2.36 for the first, 1.71 for the second.

Compared with PTCPVCKYRASPADLRTNHTLNNL [D8Y], PTCPVCKKRASPADLRTNHTLNNL [D8K] is higher in protein stability index: 2.02 for the first, 2.31 for the second.

Compared with PTCPVCKCRASPADLRTNHTLNNL [D8C], PTCPVCKERASPADLRTNHTLNNL [D8E] is higher in protein stability index: 2.09 for the first, 2.75 for the second.

Going from PTCPVCKTRASPADLRTNHTLNNL [D8T] to PTCPVCKARASPADLRTNHTLNNL [D8A], the protein stability index falls from 2.67 to 1.94.

Compared with PTCPVCKVRASPADLRTNHTLNNL [D8V], PTCPVCKGRASPADLRTNHTLNNL [D8G] is higher in protein stability index: 2.39 for the first, 3.11 for the second.

Going from PTCPVCKWRASPADLRTNHTLNNL [D8W] to PTCPVCKPRASPADLRTNHTLNNL [D8P], the protein stability index rises from 2.32 to 2.83.

Compared with PTCPVCKNRASPADLRTNHTLNNL [D8N], PTCPVCKMRASPADLRTNHTLNNL [D8M] is lower in protein stability index: 2.65 for the first, 1.92 for the second.

Going from PTCPVCKQRASPADLRTNHTLNNL [D8Q] to PTCPYCKDRASPADLRTNHTLNNL [V5Y], the protein stability index falls from 3 to 1.91.

First: PTCPWCKDRASPADLRTNHTLNNL [V5W]
Second: PTCPTCKDRASPADLRTNHTLNNL [V5T]
The protein stability index of the first is lower: 2.78 for the first, 3.19 for the second.

Compared with PTCPVCQDRASPADLRTNHTLNNL [K7Q], PTCPVCTDRASPADLRTNHTLNNL [K7T] is lower in protein stability index: 3.37 for the first, 2.72 for the second.

First: PTCPVCLDRASPADLRTNHTLNNL [K7L]
Second: PTCPVCWDRASPADLRTNHTLNNL [K7W]
The protein stability index of the first is higher: 2.91 for the first, 2.84 for the second.

First: PTCPVCMDRASPADLRTNHTLNNL [K7M]
Second: PTCPVCIDRASPADLRTNHTLNNL [K7I]
The protein stability index of the first is lower: 2.87 for the first, 3.18 for the second.

Going from PTCPVCFDRASPADLRTNHTLNNL [K7F] to PTCPVCYDRASPADLRTNHTLNNL [K7Y], the protein stability index falls from 2.94 to 2.72.

First: PTCPVCRDRASPADLRTNHTLNNL [K7R]
Second: PTCPVCSDRASPADLRTNHTLNNL [K7S]
The protein stability index of the first is higher: 2.72 for the first, 2.68 for the second.

Going from PTCPVCDDRASPADLRTNHTLNNL [K7D] to PTCPVCHDRASPADLRTNHTLNNL [K7H], the protein stability index falls from 3.65 to 3.13.

Compared with PTCPVCPDRASPADLRTNHTLNNL [K7P], PTCPVCNDRASPADLRTNHTLNNL [K7N] is lower in protein stability index: 4.04 for the first, 3.13 for the second.

Compared with PTCPVCADRASPADLRTNHTLNNL [K7A], PTCPVCGDRASPADLRTNHTLNNL [K7G] is lower in protein stability index: 3.19 for the first, 2.72 for the second.

Going from PTCPVCVDRASPADLRTNHTLNNL [K7V] to PTCPVCEDRASPADLRTNHTLNNL [K7E], the protein stability index rises from 3.45 to 3.88.

Compared with PTCPVCCDRASPADLRTNHTLNNL [K7C], PTCPVQKDRASPADLRTNHTLNNL [C6Q] is higher in protein stability index: 2.68 for the first, 4.28 for the second.

Compared with PTCPVIKDRASPADLRTNHTLNNL [C6I], PTCPVDKDRASPADLRTNHTLNNL [C6D] is higher in protein stability index: 3.59 for the first, 4.74 for the second.

Compared with PTCPVTKDRASPADLRTNHTLNNL [C6T], PTCPVEKDRASPADLRTNHTLNNL [C6E] is higher in protein stability index: 4.44 for the first, 4.64 for the second.

First: PTCPVVKDRASPADLRTNHTLNNL [C6V]
Second: PTCPVPKDRASPADLRTNHTLNNL [C6P]
The protein stability index of the first is higher: 4.22 for the first, 4.09 for the second.

First: PTCPVKKDRASPADLRTNHTLNNL [C6K]
Second: PTCPVLKDRASPADLRTNHTLNNL [C6L]
The protein stability index of the first is higher: 4.31 for the first, 3.86 for the second.

First: PTCPVGKDRASPADLRTNHTLNNL [C6G]
Second: PTCPVAKDRASPADLRTNHTLNNL [C6A]
The protein stability index of the first is lower: 4.12 for the first, 4.55 for the second.

Compared with PTCPVYKDRASPADLRTNHTLNNL [C6Y], PTCPVRKDRASPADLRTNHTLNNL [C6R] is lower in protein stability index: 4.1 for the first, 4.05 for the second.

Going from PTCPVFKDRASPADLRTNHTLNNL [C6F] to PTCPVNKDRASPADLRTNHTLNNL [C6N], the protein stability index rises from 3.84 to 4.2.

First: PTCPVWKDRASPADLRTNHTLNNL [C6W]
Second: PTCPVSKDRASPADLRTNHTLNNL [C6S]
The protein stability index of the first is lower: 3.21 for the first, 4.39 for the second.

Compared with PTCPVMKDRASPADLRTNHTLNNL [C6M], PTCPVHKDRASPADLRTNHTLNNL [C6H] is lower in protein stability index: 4.22 for the first, 4.11 for the second.
